Source: the supplement of paper PMC7125110
± gives the standard error. Variants at the floor of the assay were thinned out.

B1: glmS ribozyme (parent)
chain: AUAAAAGCGCCAGAACUACAGAAAUGUAGUUGACGAGGAGGAGGUUUAUCGAAUUUUCGGCGGAUGCCUCCAAA

Experiments:
Conditions in all cases: with glucosamine-6-phosphate
[1] = variants of: B1; assay: self-cleavage kobs at 640 uM GlcN6P; higher = faster cleavage; RNA array
Procedure, shortened: (§1)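 The measurements used barcoded ribozyme variants on sequenced MiSeq chips, transcribed in situ by E. coli RNA polymerase and tracked at 37 °C with a hybridised Cy3 probe. Glucosamine-6-phosphate, 40 μM to 10 mM in HEPES/KCl/Mg(OAc)2 buffer, was flowed in while tiles were imaged over ~14 h. Baseline-normalised signals, also normalised to non-cleaving reference variants, gave per-tile medians that were fit to one- or two-exponential decays for kobs. kcat and KM resulted from weighted Michaelis–Menten fits across concentrations.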

[2] = variants of: B1; assay: self-cleavage kobs at 2500 uM GlcN6P; higher = faster cleavage; RNA array
Procedure, shortened: as §1

[3] = variants of: B1; assay: self-cleavage kobs at 10000 uM GlcN6P; higher = faster cleavage; RNA array
Procedure, shortened: as §1

Row | Variant | self-cleavage kobs at 640 uM GlcN6P [1] [s⁻¹] | self-cleavage kobs at 2500 uM GlcN6P [2] [s⁻¹] | self-cleavage kobs at 10000 uM GlcN6P [3] [s⁻¹]
1 | AUAAAAGCGCCAGAACUACAGAAAUGUAGAUGACGAGGAGGAGGUUUAUCGAUUUUUCGGCGGAUGGCUCCAAA [U30A A53U C67G] | 6.37e-05 ± 2.6e-05 | 4.68e-05 ± 2.2e-05 | 0.000271 ± 6.3e-05
2 | AUAAAAGCGCCAGAACUACAGAAAUGUAGAUGACGAGGAGGAGGUGUAUCGAAUUUUCGGCGGAUGUCUCCAAA [U30A U46G C67U] | 0.000117 ± 3.4e-05 | 0.00027 ± 0.0001 | –
3 | AUAAAAGCGCCAGAACUACAGAAAUGUAGCUGACGAGCAGGUGGUUUAUCGAAUUUUCGGCGGAUGCCUCCAAA [U30C G38C A42U] | < 1e-05 | < 1e-05 | –
4 | AUAAAAGCGCCAGAACUACAGAAAUGUAGAUGACGAGGAGUAGGUUUUUCGAAUUUUCGGCGGAUGCCUCCAAA [U30A G41U A48U] | < 1e-05 | < 1e-05 | –
5 | AUAAAAGCGCCAGAACUACAGAAAUGUAUCUGACGAGGAGGAGGUUUAUCGUAUUUUCGGCGGAUGCCUCCAAA [G29U U30C A52U] | < 1e-05 | < 1e-05 | –
6 | AUAAAAGCGCCAGAACUACAGAAAUGUAGAUGACGAGGAGGAGGUUUAUCGAACUUUCGGCGAAUGCCUCCAAA [U30A U54C G63A] | < 1e-05 | – | –
7 | AUAAAAGCGCCAGAACUACAGAAAUGUAGAUAACGAUGAGGAGGUUUACCGAAUUUUCGGCGGUUGCCUCCAAA [U30A G32A G37U U49C A64U] | < 1e-05 | – | –
8 | AUAAAAGCGCCAGAACUACAGAAAUGUAUUUGACGAGGAGGAGGUUUAUCGAAUAUUCGGCGGGUGCCUCCAAA [G29U U55A A64G] | 0.000889 ± 0.00022 | 0.00375 ± 0.00061 | –
9 | AUAAAAGCGCCAGAACUACAGAAAUGUAGCUGACGCGGAUGAGGUUUAUCGAAUUUUCGGCGGAUGCCUCCAAA [U30C A36C G40U] | < 1e-05 | < 1e-05 | –
10 | AUAAAAGCGCCAGAACUACAGAAAUGUAGAUGACGAGGAGGAGGGUUAUCGAAUUUUCGGCGGAUGCCUCCAAA [U30A U45G] | 0.000279 ± 6.7e-05 | 0.000752 ± 0.00013 | –
11 | AUAAAAGCGCCAGAACUACAGAAAUGUAGAUGACGAGGCGGAGGUUCAUCGAAUUUUCGGCGGAUGCCUCCAAA [U30A A39C U47C] | 4.7e-05 ± 1.3e-05 | – | –
12 | AUAAAAGCGCCAGAACUACAGAAAUGUAGAUGACGAGGAGGAGGUUUAUAGAAUUUUCGGCGGAUGACUGCAAA [U30A C50A C67A C70G] | 4.38e-05 ± 1.7e-05 | – | –
13 | AUAAAAGCGCCAGAACUACAGAAAUGUAUUUGACGAGGGGGAGGUUUAUCGAUUUUUCGGCGGAUGCCUCCAAA [G29U A39G A53U] | 0.00124 ± 0.00019 | – | –
14 | AUAAAAGCGCCAGAACUACAGAAAUGUAGCUGACGAGAAGGAGAUUUAUCGAAUUUUCGGCGGAUGCCUCCAAA [U30C G38A G44A] | < 1e-05 | < 1e-05 | –
15 | AUAAAAGCGCCAGAACUACAGAAAUGUACUUGACGAGGAGGAGGUUUAUCGAAUUAUAGGCGUAUGCCUCCAAA [G29C U56A C58A G63U] | < 1e-05 | < 1e-05 | –
16 | AUAAAAGCGCCAGAACUACAGAAAUGUAUUUGCCGAGGAGGAGGUUUAGCGAAUUUUCGGCGGUUGCCUCCAAA [G29U A33C U49G A64U] | < 1e-05 | – | –
17 | AUAAAAGCGCCAGAACUACAGAAAUGUAUUUGCAGAAGAGGAGGUUUAUUGAAUUUUCGGCGGAUGCCGCCAAA [G29U A33C C34A G37A C50U U69G] | 0.000251 ± 5.9e-05 | – | 0.000226 ± 4.5e-05
18 | AUAAAAGCGCCAGAACUACAGAAAUGUAGAUGACGAGGAGGAAGUUUAUCGAAUUUUCGGCGGAUGCCUCCAAA [U30A G43A] | < 1e-05 | – | –
19 | AUAAAAGCGCCAGAACUACAGAAAUGUAGAUGACGAGGAGGACGUUUAUCGAAUUUUUGGCGGAUGCCACCAAA [U30A G43C C58U U69A] | < 1e-05 | < 1e-05 | –
20 | AUAAAAGCGCCAGAACUACAGAAAUGUAUUUGACGAGGAGGAGGUUUAUCGAAUUUUCGGCGGAUGUCUUCAAA [G29U C67U C70U] | 4.16e-05 ± 1.2e-05 | 9.35e-05 ± 1.8e-05 | –
21 | AUAAAAGCGCCAGAACUACAGAAAUGUAUUUGACGAGGAGGAGGUUUAUCGUAUUUUCGGCGGAGGCGUCCAAA [G29U A52U U65G C68G] | 0.000163 ± 5.2e-05 | 0.000217 ± 5.1e-05 | –
22 | AUAAAAGCGCCAGAACUACAGAAAUGUAGCUGACAAGGAGGAGGUUUAUCGAAUUUUCGGCGGAUGCCUCAAAA [U30C G35A C71A] | < 1e-05 | – | –
23 | AUAAAAGCGCCAGAACUACAGAAAUGUAUUUGACGAGGCGGAGGUUUAUCGAAUUUUCGGCGGAUACCUCCAAA [G29U A39C G66A] | 0.000154 ± 3.3e-05 | 0.000178 ± 5.1e-05 | –

Row | Variant | self-cleavage kobs at 640 uM GlcN6P [1] [s⁻¹] | self-cleavage kobs at 2500 uM GlcN6P [2] [s⁻¹] | self-cleavage kobs at 10000 uM GlcN6P [3] [s⁻¹]
24 | AUAAAAGCGCCAGAACUACAGAAAUGUAUUUGAUGAGGAGGAGGUUGAUCGAAUUUUCGGCGGAUGCUUCCAAA [G29U C34U U47G C68U] | 5.56e-05 ± 2.3e-05 | – | –
25 | AUAAAAGCGCCAGAACUACAGAAAUGUACUUGACGAGGAGGAGGUUUAUCUAAUUUUCGGGGGAUGCCUACAAA [G29C G51U C61G C70A] | 9.9e-05 ± 3.7e-05 | 7.11e-05 ± 2.2e-05 | –
26 | AUAAAAGCGCCAGAACUACAGAAAUGUAGAUGACGAGGAGGAGGUUUAUCGAAUUUUCGGCGGUUGCCUCCAAA [U30A A64U] | < 1e-05 | – | –
27 | AUAAAAGCGCCAGAACUACAGAAAUGUAGAUGACGAGGAGGAGGUUUAUCGAAUUUUCGUCGGAUGCCUCAAAA [U30A G60U C71A] | < 1e-05 | < 1e-05 | –
28 | AUAAAAGCGCCAGAACUACAGAAAUGUAGAUGACGAGGAGGAGCGUUCUCGAAUUUACGGCGGAUGCCUCCAAA [U30A G44C U45G A48C U57A] | < 1e-05 | – | –
29 | AUAAAAGCGCCAGAACUACAGAAAUGUACUCGACUAGGAGGAGGUUUAUCGAAUUUUCGGCGGAUGCCUCCAAA [G29C U31C G35U] | < 1e-05 | < 1e-05 | –
30 | AUAAAAGCGCCAGAACUACAGAAAUGUACCUGACGAGGAGGAGGUUUAUCGAAUUUUCGGCGGAUUCCUCCAAA [G29C U30C G66U] | < 1e-05 | – | –
31 | AUAAAAGCGCCAGAACUACAGAAAUGUAGCUGACUAGGAGGAGGUUUAUCGAAUUUUCGGCGGAUGCUUCCAAA [U30C G35U C68U] | < 1e-05 | < 1e-05 | –
32 | AUAAAAGCGCCAGAACUACAGAAAUGUAUUUGACGAGGAGGAGGUUUAUCGAGUUUCCGGCGGAUGGCACCAAA [G29U A53G U57C C67G U69A] | 0.000459 ± 0.00022 | – | –
33 | AUAAAAGCGCCAGAACUACAGAAAUGUAGAUAACCAGGAGGAGGCUUAUCGAAUUUUCGGCGGAUGCCUCCAAA [U30A G32A G35C U45C] | < 1e-05 | < 1e-05 | –
34 | AUAAAAGCGCCAGAACUACAGAAAUGUAUUUGACGAGUAGGAGGUUUAUCGAAUUUACCGCGGAUGCCUCCAAA [G29U G38U U57A G59C] | < 1e-05 | – | –
35 | AUAAAAGCGCCAGAACUACAGAAAUGUACUUGACGAGGAGGAGCUUUAUCGAAUUUUCGGCGGAUGCCUCUAAA [G29C G44C C71U] | < 1e-05 | – | –
36 | AUAAAAGCGCCAGAACUACAGAAAUGUAUUUGACAAGGAGGAGGGUUAUCGAAUUUUCGGCGGAUGCCUCCAAA [G29U G35A U45G] | < 1e-05 | – | –
37 | AUAAAAGCGCCAGAACUACAGAAAUGUAUUUGACGAGGAGGACGUUUAUCGAAUUCUCGGCGGAUGCCUCCAAA [G29U G43C U56C] | < 1e-05 | – | –
38 | AUAAAAGCGCCAGAACUACAGAAAUGUAUUUGACGAGGACGAGGUUUAUCGGAUUUUAGGCGGAUGCAUCCAAA [G29U G40C A52G C58A C68A] | < 1e-05 | < 1e-05 | –
39 | AUAAAAGCGCCAGAACUACAGAAAUGUAUUUGACGUGGAGGAGGUUUAUCGAAUUUUCGGCGGAUGCCGCCAAA [G29U A36U U69G] | 0.00026 ± 0.00011 | 0.000178 ± 7.3e-05 | –
40 | AUAAAAGCGCCAGAACUACAGAAAUGUACUUGACGAGGAGGAGGUUCAUCGAAUUUUCGGCGGAUGCCUUCAAA [G29C U47C C70U] | 8.05e-05 ± 1.3e-05 | 0.000105 ± 2.4e-05 | –
41 | AUAAAAGCGCCAGAACUACAGAAAUGUAGCUGAGGAGGAGGAGGUUUAUCGAAUUUUCGGCGGAUGCCUCCAAA [U30C C34G] | < 1e-05 | – | < 1e-05
42 | AUAAAAGCGCCAGAACUACAGAAAUGUAGAUGACGAGGAGGAGGUGUAUCGAAUGUUCGGCGGAUGCCUCCAAA [U30A U46G U55G] | 0.000157 ± 3.5e-05 | 0.000349 ± 6.6e-05 | –
43 | AUAAAAGCGCCAGAACUACAGAAAUGUAUUUGACGGGGAGGAGGUUUAUCGAUUUUUCGGCAGAUGCCUCCAAA [G29U A36G A53U G62A] | < 1e-05 | < 1e-05 | –
44 | AUAAAAGCGCCAGAACUACAGAAAUGUAUUUGACGAGGAGGAGGUCUAUCGAAUUUUCGGCCGAUGCCUCGAAA [G29U U46C G62C C71G] | < 1e-05 | < 1e-05 | –
45 | AUAAAAGCGCCAGAACUACAGAAAUGUAUUUGACGAGGUGUAGGUUUAUCGAAUUUUCGGCGGAGGCCUCCAAA [G29U A39U G41U U65G] | < 1e-05 | < 1e-05 | –
